The text below walks through data of patent US20220251236A1 (Boehringer Ingelheim, published 2022).

A value given as a limit tells only on which side of the number the result lay.

Assay [1] has as its target T1, Human DLL3-His (human, UniProt Q9NYJ7 27-492).
T1 construct: also called huDLL3-His; hu DLL3
T1 sequence: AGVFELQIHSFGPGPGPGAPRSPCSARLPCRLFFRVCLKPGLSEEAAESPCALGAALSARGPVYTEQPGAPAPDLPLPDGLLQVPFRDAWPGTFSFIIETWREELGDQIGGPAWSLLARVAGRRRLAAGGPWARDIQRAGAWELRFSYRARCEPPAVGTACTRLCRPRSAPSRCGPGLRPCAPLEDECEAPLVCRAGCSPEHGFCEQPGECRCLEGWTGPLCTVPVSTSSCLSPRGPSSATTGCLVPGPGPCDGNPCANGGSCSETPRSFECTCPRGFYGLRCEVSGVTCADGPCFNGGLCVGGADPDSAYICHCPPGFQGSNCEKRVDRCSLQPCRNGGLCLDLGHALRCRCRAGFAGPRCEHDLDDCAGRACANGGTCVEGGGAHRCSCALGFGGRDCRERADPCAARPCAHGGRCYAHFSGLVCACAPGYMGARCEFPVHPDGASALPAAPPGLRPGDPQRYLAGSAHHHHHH
The experiment in a line: SPR (ProteOn XPR36), bispecific captured on protein A/G, DLL3 as analyte, Example 4A; Table 2A (Example 4A SPR run). Here is the method: The binding affinity of purified DLL3/CD3 bispecific constructs for recombinant human and cyno DLL3-ECD and Fc-fusion proteins of human and cyno CD3 εγ subunits was determined by Surface Plasmon Resonance (SPR), using a ProteOn XPR36 instrument (Bio-Rad). The running buffer and all dilutions (except where stated) were done in PBS-T-EDTA. The GLM sensor chip (Bio-Rad) was normalized and pre-conditioned as per the manufacturer's recommendations. The sensor chip was activated with equal mixture of EDC/s-NHS in the horizontal direction for 300 sec at a flow rate of 30 ul/min and immobilized with protein A/G (20 ug/ml in 10 mM acetate pH 4.5) in the horizontal direction for 300 sec at a flowrate of 30 ul/min resulting in ˜5000 RU of protein A/G on the surface. The sensor chip was deactivated with 1M ethanolamine HCl in the horizontal direction for 300 sec at a flowrate of 30 μl/min.
For binding kinetic determination to DLL3, bispecific molecules were captured individually on the protein A/G surface vertically for 250 sec at a flowrate of 25 μl/min. The baseline was stabilized by injecting PBS-T-EDTA for 60 sec at a flowrate of 40 μl/min horizontally. The analyte (hu DLL3 or cy DLL3) was injected horizontally over the captured antibody for 600 sec at a flowrate of 40 μl/min and a dissociation for 2700 sec. […]

The target of assay [2] is T2, EGF4+5.
T2 construct: also called Hu DLL3 EGF4+5 on HEK293 cells
T2 membrane-anchored DLL3 subdomain construct: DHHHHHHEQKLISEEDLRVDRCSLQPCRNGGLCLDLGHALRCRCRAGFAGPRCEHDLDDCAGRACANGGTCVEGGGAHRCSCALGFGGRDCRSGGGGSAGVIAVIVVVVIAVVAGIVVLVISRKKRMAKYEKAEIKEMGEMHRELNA
In words: flow cytometry on HEK293 cells expressing the DLL3 subdomain construct, 1.6 nM binder, PE anti-human secondary, control: secondary antibody only. An outline of the steps: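 Binders tested on HEK293 cells displaying the DLL3 subdomain construct; bound molecules detected by flow cytometry using PE-conjugated anti-human secondary antibody. Negative control: cells with secondary antibody only.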

Assay [3] concerns the target T3, human DLL3 (endogenous, on SCLC cell lines NCI-H82 and SHP77 and in SCLC tissue) (human, UniProt Q9NYJ7 27-618).
T3 construct: whole, on cells; also called SCLC cell lines expressing DLL3
T3 sequence (looked up): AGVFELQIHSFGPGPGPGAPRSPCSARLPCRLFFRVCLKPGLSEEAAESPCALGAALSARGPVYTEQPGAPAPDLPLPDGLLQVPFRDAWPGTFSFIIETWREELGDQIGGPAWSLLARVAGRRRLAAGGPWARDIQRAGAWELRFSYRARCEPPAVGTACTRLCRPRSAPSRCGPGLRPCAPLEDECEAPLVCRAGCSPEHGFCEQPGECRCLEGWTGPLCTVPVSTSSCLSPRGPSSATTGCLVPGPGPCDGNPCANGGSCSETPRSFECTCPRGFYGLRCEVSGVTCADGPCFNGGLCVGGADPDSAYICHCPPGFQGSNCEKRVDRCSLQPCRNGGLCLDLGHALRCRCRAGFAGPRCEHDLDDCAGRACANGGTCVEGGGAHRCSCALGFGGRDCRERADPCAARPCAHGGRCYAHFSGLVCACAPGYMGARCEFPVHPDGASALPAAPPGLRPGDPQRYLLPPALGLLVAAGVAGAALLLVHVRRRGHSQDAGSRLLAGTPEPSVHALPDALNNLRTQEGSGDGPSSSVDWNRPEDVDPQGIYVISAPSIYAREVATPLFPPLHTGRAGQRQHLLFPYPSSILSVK
The experiment in a line: flow cytometry titration on SHP77 cells, PE anti-human secondary, x-fold over background. An excerpt: Cells (T cells or human SCLC cells) were stained with increasing concentrations of two-step purified DLL3/CD3 binding proteins with increasing concentrations in FACS buffer (PBS/0.5% BSA/0.05% sodium azide). Bound molecules were detected with PE-conjugated anti-human secondary antibody (Sigma-Aldrich, #P8047).

B1: DLL3#3/CD3#1 (bispecific antibody, human IgG1, kappa, lambda, L234A L235A)
chain 1: DIQMTQSPSAMSASVGDRVTITCRASQGISNYLVWFQQKPGKAPKRLIYAVSSLYSGVPSRFSGSGSGTEFTLTISSLQPEDFATYYCLQHDSYPYTFGQGTKLEIKRTVAAPSVFIFPPSDEQLKSGTASVVCLLNNFYPREAKVQWKVDNALQSGNSQESVTEQDSKDSTYSLSSTLTLSKADYEKHKVYACEVTHQGLSSPVTKSFNRGECGGGGSEGKSSGSGSESKSTEGKSSGSGSESKSTGGGGSQVQLVQSGAEVKKPGASVKVSCKASGYTFTSYYVHWVRQAPGQGLEWMVIINPGGGTTSYAQKFLGRVTMTRDTSTNTVYMELKSLRSEDTAVYYCARGEAVTGNYFYYGMDVWGQGTTVTVSSASTKGPSVFPLAPSSKSTSGGTAALGCLVKDYFPEPVTVSWNSGALTSGVHTFPAVLQSSGLYSLSSVVTVPSSSLGTQTYICNVNHKPSNTKVDKRVEPKSCDKTHTCPPCPAPEAAGGPSVFLFPPKPKDTLMISRTPEVTCVVVDVSHEDPEVKFNWYVDGVEVHNAKTKPREEQYNSTYRVVSVLTVLHQDWLNGKEYKCKVSNKALPAPIEKTISKAKGQPREPQVYTLPPSREEMTKNQVSLWCLVKGFYPSDIAVEWESNGQPENNYKTTPPVLDSDGSFFLYSKLTVDKSRWQQGNVFSCSVMHEALHNHYTQKSLSLSPG
chain 2: EAVVTQEPSLTVSPGGTVTLTCRSSTGAVTTSNYANWVQEKPGQLPRGLIGGTNKRAPWVPARFSGSLLGGKAALTLSGAQPEDEAEYFCALWYSNLWVFGGGTKLTVLGQPKAAPSVTLFPPSSEELQANKATLVCLISDFYPGAVKVAWKADGSPVNTGVETTTPSKQSNNKYAASSYLSLTPEQWKSHRSYSCQVTHEGSTVEKTVAPAECSGGGGSEGKSSGSGSESKSTEGKSSGSGSESKSTGGGGSEVQLVESGGGLVQPGGSLKLSCAASGFTFNTYAMNWVRQAPGKGLEWVARIRSKYNNYATYYADSVKDRFTISRDDSKNTAYLQMNNLKTEDTAVYYCVRHGNFGNSYVSWFAYWGQGTLVTVSAASTKGPSVFPLAPSSKSTSGGTAALGCLVKDYFPEPVTVSWNSGALTSGVHTFPAVLQSSGLYSLSSVVTVPSSSLGTQTYICNVNHKPSNTKVDKRVEPKSCDKTHTCPPCPAPEAAGGPSVFLFPPKPKDTLMISRTPEVTCVVVDVSHEDPEVKFNWYVDGVEVHNAKTKPREEQYNSTYRVVSVLTVLHQDWLNGKEYKCKVSNKALPAPIEKTISKAKGQPREPQVYTLPPSREEMTKNQVSLSCAVKGFYPSDIAVEWESNGQPENNYKTTPPVLDSDGSFFLVSKLTVDKSRWQQGNVFSCSVMHEALHNRFTQKSLSLSPG
notes: Heterodimer of one DLL3 chain and one CD3 chain (scFab-Fc, knob-in-hole)
What is called Kd is the concentration at which binding is half-saturated. A lower Kd goes with a tighter complex. B1 had a Kd in assay [1] of under 0.01 nM.

B2: DLL3#4/CD3#1 (bispecific antibody, human IgG1, kappa, lambda, L234A L235A)
chain 1: not shown
chain 2: B1 chain 2
notes: as for B1
As a reminder, the EC50 (read off the curve) is the concentration at which the effect is half-maximal. A higher EC50 (read off the curve) goes with lower potency in that assay. Turning to B2, in assay [2], the binding result was “binds”. The “EC50 (read off the curve)” value in assay [3] is about 2 nM.
